The target of assay [1] is T1, Soluble heterodimeric CD3 protein (hCD3-epsilon/hCD3-delta) with either a human Fc tag (hFcΔAdp/hFc) or a … (human, UniProt P07766 23-126; P04234 22-105).
T1 construct: also called hCD3ε/δ; not shown: Fc tag: human (hFcΔAdp/hFc)
Put plainly: SPR Biacore 25C antigen-capture. How it is done:
(§1) Measurements were conducted on a T200 Biacore™ instrument.
In the antigen-capture format, heterodimeric CD3 protein was captured using a rabbit anti-mouse Fc or mouse anti-human Fc and the respective antibodies were injected over the captured antigen.
(§2) Kinetic association (kₐ) and dissociation (kd) rate constants were determined by processing and fitting the data to a 1:1 binding model using Scrubber 2.0 curve fitting software. Binding dissociation equilibrium constants (KD) and dissociative half-lives (t₁₁₂) were calculated from the kinetic rate constants as: KD (M)=kd/kₐ; and t_{1/2} (min)=(ln 2/(60*kd). NT=not tested; NB=no binding observed.

Assay [2] has as its target T2, Soluble heterodimeric CD3 protein (hCD3-epsilon/hCD3-delta) with a human Fc tag (hFcΔAdp/hFc) or a mouse Fc … (human, UniProt P07766 23-126; P04234 22-105).
T2 construct: also called hCD3ε/δ; not shown: Fc tag: human (hFcΔAdp/hFc); which tag was used in Ta
Put plainly: SPR Biacore, 25 C, antibody-capture format. How it is done:
as §1
Soluble heterodimeric CD3 protein (hCD3-epsilon/hCD3-delta; SEQ ID NOs:1652/1653) with either a human Fc tag (hFcΔAdp/hFc; SEQ ID NOs:1683/1684) or a mouse Fc tag (mFcΔAdp/mFc; SEQ ID NOs:1685/1686) was injected over the antibody captured surface and the binding response was recorded. Heterodimeric CD3 protein was purified using the method described in Davis et al. (US2010/0331527).
as §2
For orientation: In SPR one partner is held on a chip, and binding of the other changes the refractive index at the surface.

Data on 8 molecules can be found in patent publication US20190127480A1 (Regeneron, published 2019).

T1 sequence (P07766 23-126 limits assumed, stated change not applied, chain 1 of 2): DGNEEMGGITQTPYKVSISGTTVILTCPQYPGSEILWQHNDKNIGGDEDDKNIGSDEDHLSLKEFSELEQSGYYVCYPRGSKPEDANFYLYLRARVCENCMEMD
T1 sequence (P04234 22-105 limits assumed, stated change not applied, chain 2 of 2): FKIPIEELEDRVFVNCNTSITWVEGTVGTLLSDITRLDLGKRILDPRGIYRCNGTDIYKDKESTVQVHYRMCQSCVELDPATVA
T2 sequence (P07766 23-126 limits assumed, stated change not applied, chain 1 of 2): as the sequence (P07766 23-126 limits assumed, stated change not applied, chain 1 of 2) above
T2 sequence (P04234 22-105 limits assumed, stated change not applied, chain 2 of 2): as the sequence (P04234 22-105 limits assumed, stated change not applied, chain 2 of 2) above

B1: H1M3544N (antibody, mouse IgG1, V domains shown)
VH: EVQLVESGGGLVQPGRSLRLSCAASGFTFDDYTMHWVRQVPGKGLEWVSGISWNSGSLAYADSVKGRFTISRDNAKNSLYLQMNSLHPEDTALYYCVKDGSGYGHYSYYGLDVWGQGTTVTVSS
VL: not shown
notes: H1M: mouse IgG1 Fc, human variable regions; divalent
As to B1, the “T½” value in assay [1] was 193 min.

B2: H2M2690N (antibody, V domains shown)
VH: EVQLVESGGGLVQPGRSLRLSCAASGFTFDDYTMHWVRQAPGKGLEWVSGISWNSGSIGYADSVKGRFTISRDNAKKSLYLQMNSLRAEDTALYYCAKDNSGYGHYYYGMDVWGQGTTVTVAS
VL: EIVMTQSPATLSVSPGERATLSCRASQSVSSNLAWYQQKPGQAPRLLIYGASTRATGIPARFSGSGSGTEFTLTISSLQSEDFAVYYCQHYINWPLTFGGGTKVEIK
notes: Hybridoma antibody, human variable regions, mouse IgG2 Fc
Consider B2, for which, in assay [2], the affinity, expressed as Kd, was 20.9 nM; the “T½” value was found to be 57 min; the dissociation rate constant (koff) (commonly the first-order rate constant of dissociation) was found to be 0.000202 s⁻¹; the kon (in general, a measure of how fast the partners come together) worked out at 9700 M⁻¹ s⁻¹.

B3: H2M2691N (antibody, V domains shown)
VH: EVQLVESGGGLVQPGRSLRLSCAASGFTFDDYTMHWVRQAPGKGLEWVSGISWNSGSIGYADSVKGRFTISRDNAKKSLYLQMNSLRAEDTALYYCAKDNSGYGHYYYGMDVWGQGTTVTVAS
VL: EIVMTQSPATLSVSPGERATLSCRASQSVSSNLAWYQQKPGQAPRLLIYGASTRATGIPARFSGSGSGTEFTLTISSLQSEDFAVYYCQHYINWPLTFGGGTKVEIK
notes: as for B2
Take B3: in assay [2], the Kd (as a rule, the concentration at which binding is half-saturated) is 20.1 nM; the “T½” value was determined as 56 min; the koff was found to be 0.000207 s⁻¹; the kon was 10300 M⁻¹ s⁻¹.

B4: H1M2692N (antibody, V domains shown)
VH: EVQLVESGGGLVQPGGSLRLSCAASGFSFDDYTMHWVRQPPGKGLEWVSGISWNSGSIGYADSVKGRFTISRDNAKNSLYLQMNSLRAGDTALYYCAKDNSGYGYYYYYGMDVWGQGTTVTVSS
VL: EIVMTQSPATLSVSPGERATLSCRASQSVSSNLAWYQQKPGQAPRLLIYGASTRATGIPARFSGSGSGTEFTLTISSLQSEDFAVYYCQQYYNWPLTFGGGTKVEIK
notes: Hybridoma antibody, human variable regions, mouse IgG1 Fc
Take B4: in assay [2], the affinity, expressed as Kd, was 53.9 nM; the “T½” value is 27 min; the koff is 0.000434 s⁻¹; the kon stood at 8050 M⁻¹ s⁻¹.

B5: H2M2707N (antibody, V domains shown)
VH: QVQLVESGGGVVQPGRSLRLSCIASGFTFRSYGMHWVRQAPGKGLEWVAMIYYDGNNKYYADSVRGRFTISRDNSKNTLYLQMNSLRADDTAVYFCARGPGYNWLDPWGQGTLVTVSS
VL: EIVMTQSPATLSVSPGERATLSCRASQSVSSNLAWYQQKPGQAPRLLIYGASTRATGIPARFSGSGSGTEFTLTISSLQSEDFAVYYCQQYNNRPLTFGGGTKVEIK
notes: as for B2
On to B5, for which, in assay [2], the Kd worked out at 63.5 nM, the “T½” value is 6 min, the koff came out at 0.00187 s⁻¹ and the kon was found to be 29500 M⁻¹ s⁻¹.

B6: H2M2779N (antibody, V domains shown)
VH: EVQLVESGGGLVQPGGSLRLSCAATGFTFDDFTMHWVRQAPGKGLEWVSGISWNSGSIGYVDSVKGRFTISRDNAKNSLYLQMNSLRAEDTALYYCAKDNSGYGYYYYGMDVWGQGTTVTVSS
VL: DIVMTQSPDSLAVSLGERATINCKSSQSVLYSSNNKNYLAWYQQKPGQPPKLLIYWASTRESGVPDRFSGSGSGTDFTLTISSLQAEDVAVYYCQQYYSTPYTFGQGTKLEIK
notes: H2M: mouse IgG2 Fc, human variable regions; divalent
With B6, in assay [1], the Kd amounted to 0.0938 nM, the “T½” value was 941 min, the koff was 1.23e-05 s⁻¹ and the kon was found to be 128000 M⁻¹ s⁻¹.

B7: H2M2689N (antibody, V domains shown)
VH: QVQLVESGGGVVQPGRSLRLSCAASGFTFSRKGMHWVRQAPVKGLEWVAVISYDGSNKYYADSVKGRFTISRDNSKNTLYLQMNSLTAEDTAVYYCAKEGGHDYGGTFDYWGQGTLVTVSS
VL: not shown
notes: as for B2
Regarding B7, in assay [2], the Kd stood at 4.18 nM, the “T½” value amounted to 4 min, the koff worked out at 0.00323 s⁻¹ and the kon was 773000 M⁻¹ s⁻¹.

B8: H2M2689N (antibody, mouse IgG2, V domains shown)
VH: QVQLVESGGGVVQPGRSLRLSCAASGFTFSRKGMHWVRQAPVKGLEWVAVISYDGSNKYYADSVKGRFTISRDNSKNTLYLQMNSLTAEDTAVYYCAKEGGHDYGGTFDYWGQGTLVTVSS
VL: not shown
notes: as for B6
For the molecule B8, in assay [1], the equilibrium dissociation constant (Kd) is 0.0583 nM, the “T½” value came out at 116 min, the koff turned out to be 9.97e-05 s⁻¹ and the on-rate (kon) was found to be 1.71e+06 M⁻¹ s⁻¹.
